Results taken from patent publication US20190153065A1 (published 2019).

Tests used:
[1] = biological target: T1, wild-type mouse PD-L1 mCherry (full-length mouse PD-L1 with C-terminal mCherry, on HEK 293 cells) (mouse, UniProt Q9EP73 19-290); test: FACS
[2] = biological target: PD-L1 mutant Y56A (mouse PD-L1-mCherry fusion) (mouse, UniProt Q9EP73 19-290); test: FACS
[3] = biological target: PD-L1 mutant G120D (mouse PD-L1-mCherry fusion) (mouse, UniProt Q9EP73 19-290); test: FACS titration; avid
[4] = biological target: PD-L1 mutant D49R (mouse PD-L1-mCherry fusion) (mouse, UniProt Q9EP73 19-290); test: FACS titration; avid
[5] = biological target: PD-L1 mutant G119D (mouse PD-L1-mCherry fusion) (mouse, UniProt Q9EP73 19-290); test: FACS titration; avid
[6] = biological target: PD-L1 mutant K124A (mouse PD-L1-mCherry fusion) (mouse, UniProt Q9EP73 19-290); test: FACS titration; avid
[7] = biological target: PD-L1 mutant R125A (mouse PD-L1-mCherry fusion) (mouse, UniProt Q9EP73 19-290); test: FACS titration; avid
[8] = biological target: T1, wild-type mouse PD-L1 mCherry …; test: FACS titration; avid
[9] = biological target: PD-L1 mutant D122A (mouse PD-L1-mCherry fusion) (mouse, UniProt Q9EP73 19-290); test: FACS titration; avid
[10] = biological target: PD-L1 mutant Y123R (mouse PD-L1-mCherry fusion) (mouse, UniProt Q9EP73 19-290); test: FACS titration; avid
[11] = biological target: D28R; test: FACS titration; avid

PD-L1 mutant R125A (mouse PD-L1-mCherry fusion), sequence (Q9EP73 19-290 R125A): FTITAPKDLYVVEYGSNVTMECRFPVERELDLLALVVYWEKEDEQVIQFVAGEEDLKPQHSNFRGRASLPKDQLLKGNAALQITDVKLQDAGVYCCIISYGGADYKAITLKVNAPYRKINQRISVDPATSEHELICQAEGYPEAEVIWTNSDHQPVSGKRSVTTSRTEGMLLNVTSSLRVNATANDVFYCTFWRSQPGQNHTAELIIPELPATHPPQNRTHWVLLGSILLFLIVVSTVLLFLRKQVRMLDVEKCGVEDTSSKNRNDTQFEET
PD-L1 mutant K124A (mouse PD-L1-mCherry fusion), sequence (Q9EP73 19-290 K124A): as the sequence (Q9EP73 19-290 R125A) above, with K106A, A107R counted along it
T1 sequence (Q9EP73 19-290): as the sequence (Q9EP73 19-290 R125A) above, with A107R counted along it
PD-L1 mutant Y123R (mouse PD-L1-mCherry fusion), sequence (Q9EP73 19-290 Y123R): as the sequence (Q9EP73 19-290 R125A) above, with Y105R, A107R counted along it
PD-L1 mutant Y56A (mouse PD-L1-mCherry fusion), sequence (Q9EP73 19-290 Y56A): as the sequence (Q9EP73 19-290 R125A) above, with Y38A, A107R counted along it
PD-L1 mutant D49R (mouse PD-L1-mCherry fusion), sequence (Q9EP73 19-290 D49R): as the sequence (Q9EP73 19-290 R125A) above, with D31R, A107R counted along it
PD-L1 mutant G120D (mouse PD-L1-mCherry fusion), sequence (Q9EP73 19-290 G120D): as the sequence (Q9EP73 19-290 R125A) above, with G102D, A107R counted along it
PD-L1 mutant G119D (mouse PD-L1-mCherry fusion), sequence (Q9EP73 19-290 G119D): as the sequence (Q9EP73 19-290 R125A) above, with G101D, A107R counted along it
PD-L1 mutant D122A (mouse PD-L1-mCherry fusion), sequence (Q9EP73 19-290 D122A): as the sequence (Q9EP73 19-290 R125A) above, with D104A, A107R counted along it

B1: wild-type mPD-1 Fc (residues L25-Q167, mIgG2a-10×His) (Fc fusion)
chain (part 1 of 2): LEVPNGPWRSLTFYPAWLTVSEGANATFTCSLSNWSEDLMLNWNRLSPSNQTEKQAAFCNGLSQPVQDARFQIIQLPNRHDFHMNILDTRRNDSGIYLCGAISLHPKAKIEESPGAELVVTERILETSTRYPSPSPKPEGRFQ
chain (part 2 of 2): HHHHHHHHHH
Question: Which results are given for B1?
Answer: EC50 [1]: 1.8 nM; EC50 [2]: 1.9 nM; EC50 [3]: 2.8 nM; EC50 [4]: 1.8 nM; EC50 [5]: 2 nM; EC50 [6]: 42.9 nM; EC50 [7]: 38.8 nM

B2: wild-type mB7-1 Fc (residues D37-K245, mIgG2a-10×His) (Fc fusion)
chain: DVDEQLSKSVKDKVLLPCRYNSPHEDESEDRIYWQKHDKVVLSVIAGKLKVWPEYKNRTLYDNTTYSLIILGLVLSDRGTYSCVVQKKERGTYEVKHLALVKLSIKADFSTPNITESGNPSADTKRITCFASGGFPKPRFSWLENGRELPGINTTISQDPESELYTISSQLDFNTTRNHTIKCLIKYGDAHVSEDFTWEKPPEDPPDSK
modifications: C-terminal mIgG2a Fc-10×His (dimerising carrier), not in the letters
Question: How did the EC50 [8] turn out when B2 was run?
Answer: The EC50 was 39.2 nM.

Question: And the EC50 [9]?
Answer: Its EC50 is 68.2 nM.

Question: What about the EC50 [10] of the same binder?
Answer: Its EC50 is 7.7 nM.

Question: What about the EC50 [6] of the same binder?
Answer: Its EC50 is 54.9 nM.

Question: And the EC50 [7]?
Answer: The EC50 was 20.2 nM.

B3: PD-1 (Fc fusion)
chain (part 1 of 2): B1 chain (part 1 of 2)
chain (part 2 of 2): HHHHHHHHHH
Question: For B3, which EC50 [11] is on record?
Answer: The EC50 was 2.6 nM.

B4: B7-1 (Fc fusion)
chain: B2 chain
modifications: C-terminal mIgG2a Fc-10×His (dimerising carrier), not in the letters
Question: B4 was tested. Which EC50 [11] did it give?
Answer: The EC50 was 18.8 nM.
